The source of these data is the RNAGym collection of RNA variant scans (doi:10.7554/elife.90254).

B1: OR4K15 (parent)
chain: GUUAACGGUCAUAGGCCAUGGAAACUAGGAGCACCAUUUCGCUGCCAGUGAAGAAAUGAACAAAGAAAAUCUGGGCCAGGCAGGCAUCAAAAGAAAUAGUCUUGCGCUCAACCAGAAAGUCUGUAAUCAUUUUAAGGGUA

In this data set the parent is B1. Briefly: self-cleavage, relative activity (ratio to wild type); higher = more cleavage; in vitro, sequencing; the parent is a self-cleaving ribozyme.
Turning to U43C A63C, the self-cleavage was 2.53.

C46U A114G: the self-cleavage came to 0.49.

For the variant C46U A67U, the self-cleavage amounted to 2.2.

As to C45G A116G, the self-cleavage is 0.77.

As for U43C A47G, the self-cleavage is 0.98.

As to U43C G79U, the self-cleavage was determined as 0.12.

On to A47G A135G, for which the self-cleavage was 1.27.

In the case of G48A A126U, the self-cleavage worked out at 1.9.

Regarding G48A A126G, the self-cleavage was determined as 1.15.

Consider C45A A129G, for which the self-cleavage is 0.87.

For the variant C45U A56C, the self-cleavage was determined as 0.67.

As for A47G U120A, the self-cleavage is 1.21.

As for U43C A90U, the self-cleavage is 1.83.

As for U43C A82G, the self-cleavage came to 0.36.

In the case of U43C A135U, the self-cleavage amounted to 0.71.

With U43C A135G, the self-cleavage worked out at 2.01.

With A47G A52U, the self-cleavage turned out to be 1.73.

Regarding A47G A52C, the self-cleavage was determined as 0.5.

For A47G A52G, the self-cleavage amounted to 0.87.

Take A47G A62G: the self-cleavage was found to be 0.63.

Turning to A47U A82G, the self-cleavage came to 0.21.

Regarding A47U U120A, the self-cleavage was determined as 1.19.

For C45A A98U, the self-cleavage is 1.6.

For the variant A47C U120A, the self-cleavage was 2.24.

As for A47C U120C, the self-cleavage amounted to 1.

With G44A U124A, the self-cleavage is 1.15.

G44A U124C: the self-cleavage was 0.45.

Take C45A U131A: the self-cleavage stood at 1.29.

Turning to C46A A91G, the self-cleavage is 0.95.

As for A47G A125G, the self-cleavage came to 0.28.

For A47G A125U, the self-cleavage was 1.01.

With A47U U87C, the self-cleavage is 1.34.

As to A47G A96G, the self-cleavage was determined as 1.18.

On to U43C U70G, for which the self-cleavage was 1.28.

With U43C U70C, the self-cleavage was found to be 0.83.

Consider G44A U108C, for which the self-cleavage was found to be 0.01.

As for A47G U108C, the self-cleavage was 0.01.

As for G44C A82U, the self-cleavage worked out at 0.27.

Turning to C46U U127C, the self-cleavage worked out at 0.86.

In the case of U43C G138A, the self-cleavage came to 2.16.

For A47G U139C, the self-cleavage turned out to be 1.45.

Turning to A47G U139A, the self-cleavage was found to be 1.4.

For the variant A47U U131C, the self-cleavage came out at 0.54.

As to A47G A114G, the self-cleavage stood at 0.24.

Consider A47U G106U, for which the self-cleavage stood at 0.01.

In the case of A47U G106A, the self-cleavage is 0.01.

C45U A51G: the self-cleavage came to 1.58.

Consider A47U U133C, for which the self-cleavage turned out to be 0.97.

Take U43C G136A: the self-cleavage amounted to 1.75.

On to U43G U49C, for which the self-cleavage was 2.01.

As for G44A C77U, the self-cleavage amounted to 2.17.

For C46U A59G, the self-cleavage stood at 1.81.

As for A47G A98U, the self-cleavage came to 0.85.

As to A47G A98G, the self-cleavage worked out at 0.3.

For the variant A47C A67G, the self-cleavage is 0.84.

Turning to G48A A59G, the self-cleavage amounted to 1.25.

Take G48A A59U: the self-cleavage was determined as 0.86.

For A47U U70G, the self-cleavage is 1.16.

For A47U U70C, the self-cleavage came out at 0.13.

On to C45U A140G, for which the self-cleavage amounted to 1.42.

As for G48A U130C, the self-cleavage is 0.82.

Take G44C A78G: the self-cleavage is 0.52.

Take C46U A89G: the self-cleavage amounted to 2.15.

For G44A U97C, the self-cleavage was 0.83.

On to U43C A91U, for which the self-cleavage turned out to be 1.88.

As for A47C U49G, the self-cleavage is 1.78.

In the case of A47C U49C, the self-cleavage is 1.24.

In the case of C46A A60U, the self-cleavage was 1.27.

On to C45U U122G, for which the self-cleavage worked out at 2.74.

A47U A116C: the self-cleavage is 0.05.

Consider U43C C112U, for which the self-cleavage was 0.

As to C46A A118U, the self-cleavage came to 0.26.

Take A47G U87C: the self-cleavage is 0.42.

For the variant G44A U131C, the self-cleavage amounted to 1.53.

Turning to U43C A140G, the self-cleavage is 1.95.

In the case of C45U U120C, the self-cleavage came out at 1.06.

For the variant U43C A69G, the self-cleavage was found to be 0.94.

Turning to U43C G74C, the self-cleavage stood at 0.23.

Take C45A A134G: the self-cleavage is 1.72.

For the variant C45A G99A, the self-cleavage turned out to be 0.92.

For A47C U70C, the self-cleavage was determined as 0.23.

A47G G138A: the self-cleavage was 1.31.

Turning to U43G A125G, the self-cleavage turned out to be 1.11.

On to A47C G74A, for which the self-cleavage was determined as 0.17.

On to A47C G74U, for which the self-cleavage stood at 0.15.

As to A47G A118G, the self-cleavage stood at 0.41.

Consider U43C A98G, for which the self-cleavage was found to be 0.44.

For the variant G44C U102C, the self-cleavage is 2.81.

Take A47G A116G: the self-cleavage is 0.35.

For A47G A116C, the self-cleavage was determined as 0.03.

U43C A56G: the self-cleavage is 1.18.

With A47C C105U, the self-cleavage is 0.32.

With A47G A82U, the self-cleavage is 0.07.

Regarding A47G A82G, the self-cleavage stood at 0.51.

Consider G48A G73A, for which the self-cleavage was determined as 0.22.

In the case of A47U A94G, the self-cleavage was 1.22.

Consider G44A A64G, for which the self-cleavage came out at 1.36.

With G44A A110G, the self-cleavage turned out to be 0.14.

For the variant U43C A118C, the self-cleavage was 1.4.

For the variant U43C A118U, the self-cleavage amounted to 0.87.

In the case of A47U U100C, the self-cleavage was 2.2.

Regarding U43C A114U, the self-cleavage turned out to be 0.05.

In the case of U43C A114C, the self-cleavage turned out to be 0.03.

Take U43A U122G: the self-cleavage was determined as 2.29.

For the variant C46U U130C, the self-cleavage amounted to 1.4.

Regarding A47U U124C, the self-cleavage amounted to 0.5.

On to U43G A111G, for which the self-cleavage is 0.03.

G44C A117G: the self-cleavage was determined as 1.69.

Consider C46G, for which the self-cleavage came to 1.46.

Take C46U: the self-cleavage was 1.54.

Regarding C46A, the self-cleavage worked out at 1.44.

Take C46U U122A: the self-cleavage amounted to 1.22.

Turning to C46U A117G, the self-cleavage was found to be 2.01.

Take A47U U103G: the self-cleavage is 0.03.

Regarding C45G A51G, the self-cleavage turned out to be 1.57.

As for U43C A78U, the self-cleavage was 0.4.

On to A47U U122C, for which the self-cleavage was determined as 0.67.

Regarding G44A A54G, the self-cleavage was found to be 1.57.

For the variant A47G G115U, the self-cleavage is 0.09.

Take G44A G84U: the self-cleavage is 0.93.

Consider A47U A54G, for which the self-cleavage stood at 0.67.

As to A47U A117C, the self-cleavage turned out to be 0.24.

On to A47G A66G, for which the self-cleavage stood at 0.23.

In the case of A47G A66U, the self-cleavage turned out to be 1.11.

Turning to U43G A66G, the self-cleavage came to 1.69.

With A47U U97A, the self-cleavage stood at 1.74.

With C45G U102C, the self-cleavage is 1.48.

Regarding G44A A134U, the self-cleavage was 0.73.

For C45U, the self-cleavage turned out to be 1.72.

With C45G, the self-cleavage stood at 1.37.

As for C45A, the self-cleavage was 1.6.

Take A47U A114U: the self-cleavage was 0.06.

As to C46U U87C, the self-cleavage was 1.68.

Take U43A U127C: the self-cleavage was found to be 1.07.

With A47U A111G, the self-cleavage was 0.04.

Turning to G48A U108A, the self-cleavage turned out to be 0.01.

For the variant A47G A94G, the self-cleavage stood at 0.82.

Regarding U43C A111G, the self-cleavage turned out to be 0.02.

On to C46U A129G, for which the self-cleavage worked out at 1.52.

As to A47U A135C, the self-cleavage was 1.32.

Regarding C46U A69U, the self-cleavage was 1.84.

As to U43C U132A, the self-cleavage is 1.82.

For A47G G58C, the self-cleavage stood at 0.97.

As to A47G G58A, the self-cleavage came to 0.52.

Take A47U A126C: the self-cleavage was 0.72.

Turning to C46A U97A, the self-cleavage was determined as 1.43.

For the variant A47U U132C, the self-cleavage was 1.02.

On to A47U U132A, for which the self-cleavage worked out at 0.51.

As to A47U A78G, the self-cleavage came to 0.17.

Turning to A47U A78C, the self-cleavage was determined as 0.08.

With U43G A134G, the self-cleavage was 0.89.

As to U43C C71A, the self-cleavage was 0.32.

In the case of U43C U139A, the self-cleavage turned out to be 1.3.

As to G48A A92G, the self-cleavage is 2.02.

Regarding G48A A92U, the self-cleavage is 1.62.

Regarding C46U A116G, the self-cleavage was found to be 1.37.

For C45U A126G, the self-cleavage was found to be 0.97.

In the case of A47U U108C, the self-cleavage was found to be 0.01.

U43C U97G: the self-cleavage came to 1.6.

With C46U A51U, the self-cleavage was 0.64.

With U43C U131C, the self-cleavage turned out to be 1.36.

With A47C A129G, the self-cleavage was 0.74.

U43C G93A: the self-cleavage was determined as 2.44.

As for A47G A59G, the self-cleavage was 0.86.

Regarding U43C A66G, the self-cleavage is 1.29.

Take U43G A54C: the self-cleavage amounted to 1.71.

On to G44C C46A, for which the self-cleavage stood at 1.19.
